Data reported in publication PMC7447634, “KIN10 promotes stomatal development through stabilization of the [sequence] transcription factor” (Nature Communications, 2020).

Biological target: T1, maltose-binding protein (MBP)-KIN10 (Arabidopsis thaliana, UniProt Q38997-2 1-512)
T1 construct: KIN10, catalytic alpha subunit of SnRK1, Arabidopsis thaliana; full-length cDNA without stop codon in pMAL2CGW (N-MBP); also called KIN10-MBP; source: bacteria (Escherichia coli), purified (amylose resin); not shown: MBP, N-terminal, kept
T1 sequence (looked up): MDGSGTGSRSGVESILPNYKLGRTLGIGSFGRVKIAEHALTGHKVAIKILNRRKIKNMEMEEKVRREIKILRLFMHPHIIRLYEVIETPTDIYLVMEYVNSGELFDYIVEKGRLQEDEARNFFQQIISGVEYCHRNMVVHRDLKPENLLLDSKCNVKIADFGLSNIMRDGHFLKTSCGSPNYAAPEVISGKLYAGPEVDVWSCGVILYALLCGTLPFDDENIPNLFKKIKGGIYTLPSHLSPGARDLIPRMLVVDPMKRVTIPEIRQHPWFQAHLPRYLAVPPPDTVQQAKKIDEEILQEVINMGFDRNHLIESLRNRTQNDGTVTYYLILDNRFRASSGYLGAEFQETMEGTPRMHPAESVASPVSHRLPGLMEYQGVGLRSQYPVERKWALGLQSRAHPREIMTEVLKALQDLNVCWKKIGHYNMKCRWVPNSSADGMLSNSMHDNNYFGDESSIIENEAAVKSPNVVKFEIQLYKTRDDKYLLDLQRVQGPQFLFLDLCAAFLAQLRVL
Test: pull-down; 1 µg GST-SPCH bound to glutathione agarose beads incubated with 1 µg MBP or MBP-KIN10; 20 mM Tris-HCl pH 7.5, 100 mM NaCl, 1 mM EDTA, 4 °C, 1 h; washed with 300 mM NaCl, 0.1% Nonidet P-40; blot with anti-MBP
Conditions: both partners purified

B1: glutathione S-transferase (GST)-SPCH (natural protein, Arabidopsis thaliana, UniProt Q700C7 1-364, looked up)
chain: MQEIIPDFLEECEFVDTSLAGDDLFAILESLEGAGEISPTAASTPKDGTTSSKELVKDQDYENSSPKRKKQRLETRKEEDEEEEDGDGEAEEDNKQDGQQKMSHVTVERNRRKQMNEHLTVLRSLMPCFYVKRGDQASIIGGVVEYISELQQVLQSLEAKKQRKTYAEVLSPRVVPSPRPSPPVLSPRKPPLSPRINHHQIHHHLLLPPISPRTPQPTSPYRAIPPQLPLIPQPPLRSYSSLASCSSLGDPPPYSPASSSSSPSVSSNHESSVINELVANSKSALADVEVKFSGANVLLKTVSHKIPGQVMKIIAALEDLALEILQVNINTVDETMLNSFTIKIGIECQLSAEELAQQIQQTFC
notes: full-length cDNA without stop codon in pDEST15 (N-GST); source: bacteria, purified (glutathione beads); not shown: GST, N-terminal, kept
B1: binds.
